This note sets out measurements from article PMC4655416, “The activity of protein phosphatase 5 towards native clients is modulated by the middle- and C-terminal domains of Hsp90” (Scientific Reports, 2015).

“And” between values parts separate entries of the source, which are not always exact repeats. Equal entries are not always repeated.

Assay [1] concerns the target T1, C. elegans Hsp90 (CeHsp90), full-length (C. elegans, UniProt Q18688 1-702).
T1 construct: Hsp90/DAF-21 of C. elegans, full-length; also called Hsp90/DAF-21; nematode Hsp90; source: E. coli BL21-CodonPlus(DE3)-RIL, purified (Ni-NTA, Resource Q, gel filtration); not shown: His6, N-terminal, kept
Kind of assay: AUC; sedimentation velocity with UV/VIS absorbance optics (OD280); PPH-5 titrated to a constant concentration of CeHsp90 (4 μM) or CeHsp90-MC (3.5 μM); global fit to sequential binding of a first and second PPH-5. Particulars: both partners purified.

Assay [2] concerns the target T2, CeHsp90-derived MEEVD-containing peptide AEEDASRMEEVD (C. elegans).
T2 peptide: AEEDASRMEEVD
The assay can be described thus: cell-based or functional assay.

Assay [3] has as its target T1, C. elegans Hsp90 (CeHsp90), full-length. The assay can be described thus: cell-based or functional assay.

B1: protein phosphatase 5 from C. elegans (PPH-5) (enzyme, UniProt Q9NES8 1-496, looked up)
chain: MAATITDDIVATVLESIEEKSYEDEKEKAGMIKDEANQFFKDQVYDVAADLYSVAIEIHPTAVLYGNRAQAYLKKELYGSALEDADNAIAIDPSYVKGFYRRATANMALGRFKKALTDYQAVVKVCPNDKDARAKFDECSKIVRRQKFEAAISTDHDKKTVAETLDINAMAIEDSYDGPRLEDKITKEFVLQLIKTFKNQQKLHKKYAFKMLLEFYNYVKSLPTMVEITVPTGKKFTICGDVHGQFYDLCNIFEINGYPSETNPYLFNGDFVDRGSFSVETIFTMIGFKLLYPNHFFMSRGNHESDVMNKMYGFEGEVKAKYTQQMCDMFTETFCWLPLCHLINEKIFVCHGGLFKEDGVTLEDIRKTDRNRQPPDEGIMCDLLWSDPQPINGRSPSKRGVGCQFGPDVTSKWCETNGIEYVVRSHEVKPEGYEMHHNGQCFTVFSAPNYCDQMNNKGAFITITGDNLTPRFTPFDAVPHPKLPPMAYANSLFGFN
notes: protein phosphatase 5 (PPH-5) of C. elegans; also called the phosphatase; source: E. coli BL21-CodonPlus(DE3)-RIL, purified (Ni-NTA, Resource Q, gel filtration); not shown: His6, N-terminal, kept
As for B1, in assay [1], the Kd (usually the concentration at which binding is half-saturated) is ~1000 nM and 1000 to 3000 nM; the stoichiometry N (in general, the number of molecules, sites or subunits per partner or assembly) came out at 2 PPH-5 per CeHsp90 dimer. For the same molecule, in assay [2], the “pNPP turnover by PPH-5 in presence of 60 μM peptide …” value is approximately 6 fold. Besides, the “kcat of PPH-5 towards the model peptide KRpTIRR (50 μM) with 3 μM CeHsp90” value in assay [3] was 0.133 s⁻¹.
